# Laboratory results as given in the DeepSol protein solubility set.
# Assay: soluble on expression in E. coli; label from the status in PepcDB or PDB records
row,Sequence,soluble on expression in E. coli
1,MNKKMIFFDIDGTIVDEKTHVIPEGTIAAIKKARSNGHLVFINTGRTFFNVPDSIRQIGFDGYVCGCGTYIHINGQTLLEKSISHKRCVEIVEKLRECKLDALLEGQKDFFFDQREPVSEKTLELKSKFGKRGYDVSKSWDDSDIVFDKFVIWTRKESNLEAFKSHISNDFDYIDREDEEGEFGEIVLKGYSKATGIKFLQDYFNIPIEDCYALGDSLNDLPMLQYVPNSIAMGNSSKGLFDLVAFVTKDIMEDGIEYALKHYNII,not soluble
2,MGHHHHHHSHMQGLLRFEDQDSARGDQNIAMFYPTSTQMVYRRGLQAIPLSGDLWIHYINFLKETLDPGDPETNNTIRGTFEHAVLAAGTDFRSDRLWEMYIDWENEQGNLREVTAIYDRILGIPTQLCSHHFQRFKEHVQNNLPRDLLTGEQFIQLRRELASVNGHSGDDGPPGDDLPSGIEDITDPAKLITEIENMRHRIIEIHQEMFNYNEHEVSKRWTFEEGIKRPYFHVKPLEKAQLKKLERILRI,soluble
3,MTERSPLRVGIGGPVGSGKTALTLNLCRALRNKYNMAVVTNDIYTKEDSNFLTRNEAMTPDRIVGVETGGCPHTAIREDASINLAAIDDLCEKFDGLELIIIESGGDNLAATFSPELSDLTLYVIDVAGGEKIPRKGGPGITKSDLLIINKTDLAPMVGANLDVMEQDAKRMRGEKPFLFSNMKTEDGLTQIIEFIEKQGLFKALEHHHHHH,soluble
4,AHHHHHHGSVERKKWSENFSEWFNEVIEEAGILDKRYPVKGMNVWLPYGLKIMKNIEKFIHEEMERTDHQEVLFPALIPETEFQKEAEHIAGFEGEVFWVTHAGHEPLDVRLVLRPTSETAMYSMFALWIRSHADLPFKVYQIVNVYRYETKHTRPLIRVREISRFFEAHTAHADFEDAERQIKEDLEIFDNLMKKLAIAYVISKRPEWDKFPGAYYSLGAEVVMPDGRTLQIGTMHNYKQNFAKAYNILYEKEDGTHDYVHQTTFGMSERLLAAVIAIHGDDRGMVLPPTIAPIQVVIVPIPKKGSEEEVYSYAREIEEELKLAGIRVHLDLRDKRPGWKFYDWELKGVPVRIEVGPRDAAEKTVVLARRDKLEKITVSREELVDKVRELFDDIMQYLYERAKEWLESHIKRVDTIEEAKELFNDRRGIVEIPWCGEEECGLKMEEELEAKMLGIPYPEESARVEGKKCPVCGREAKFIARFARTY,not soluble
5,EKEKKNVFMRTFEAISRNFSEIFAKLSPGGSARLILENPEDPFSGGLEIEAKPAGKDVKRIEAMSGGEKALTALAFVFAIQKFKPAPFYLFDEIDAHLDDANVKRVADLIKESSKESQFIVITLRDVMMANADKIIGVSMRDGVSKVVSLSLEKAMKILEEIRKKQGWEHGN,soluble
6,MWGACKVKVHDSLATISITLRRYLRLGATMAKSKFEYVRDFEADDTCLAHCWVVVRLDGRNFHRFAEKHNFAKPNDSRALQLMTKCAQTVMEELEDIVIAYGQSDEYSFVFKRKTNWFKRRASKFMTHVASQFASSYVFYWRDYFEDQPLLYPPGFDGRVVVYPSNQTLKDYLSWRQADCHINNLYNTVFWALIQQSGLTPVQAQGRLQGTLAADKNEILFSEFNINYNNEPPMYRKGTVLIWQKVDEVMTKEIKLPTEMEGKKMAVTRTRTKPVPLHCDIIGDAFWKEHPEILDEDS,soluble
7,MDNLETDRLILINYTLEMIQATINGTEALEKTSGYHVSPDWPGIDFFFYLPYVLENVKKDDKMIKWTRLVVLKTENKIIGEIGGQGNPDETGEIEIGYSIVPDYQNKGYMSEALISMIDWLEHQPVINRIFARCYEQNEASIQVLKHNHFVHIKEKDTEEKQGRVMMWEYPIKQT,not soluble
8,MGHHHHHHSHMLINARISVRSYPKYQRFSFFYALLFKRIDLILAQSKEDKKRLLNLGAKKVVDFLNIKRFSKPVITSFYPKNPSALNIVLASTHEGEEELGLKAFLELKKTFKNARLIVVPRHPERFKSVQDLLQNTLKTTPFSWECFSSKGFVECDILLVDSLGELNNFYQIADIVILGGSFVKMGGHNPLEPAFFNARLITGEYIFNQVALFELVKPYKIVPKEDLLDALLDYKNLGMARFLENGHDLNELLAFIKH,not soluble
